Test system: MS2 coat protein
Experiment: apparent KD of MS2 coat protein; designed switch direction (-1 OFF switch, 1 ON switch): -1; higher = weaker reporter binding
Procedure, shortened: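 Designed RNA switches with common flanks were transcribed on Illumina chips by stalled E. coli RNA polymerase and titrated with SNAP-549-labelled MS2 coat protein, from 0.7 or 1.5 nM doubling to 3 µM, in Tris-HCl pH 7.5 buffer with KCl, MgCl2, BSA, DTT, tRNA and Tween-20. Steps lasted 0.8–1.5 h (lowest) to 10–20 min (highest). Titrations ran without input, with 200 uM small-molecule ligand, or with an oligonucleotide input. Normalised cluster fluorescence was curve-fitted, and apparent KD is the per-design median over clusters.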

[1] = Eterna round: R95, input ligand: FMN 200 uM
[2] = Eterna round: R95, input ligand: microRNA oligo, concentration not stated
[3] = Eterna round: R95, input ligand: none
[4] = input ligand: microRNA oligo, concentration not stated

| Sequence | apparent KD of MS2 coat protein [1] [nM] | apparent KD of MS2 coat protein [2] [nM] | apparent KD of MS2 coat protein [3] [nM] | apparent KD of MS2 coat protein (input ligand: FMN 200 uM) [nM] | apparent KD of MS2 coat protein (input ligand: none) [nM] | apparent KD of MS2 coat protein [4] [nM] |
| --- | --- | --- | --- | --- | --- | --- |
| GGCAAUAUGUAGGAUAUCGUAUUGGAAACAAUACGAGAAGGGCAAACAUGAGGAUCACCCAUGUUCCUUAAGCC [Mat - Exclusion 6 - Eli Mod - D68] (puzzle: Exclusion 6) | 18.6 | 17.6 | 16.6 | – | – | – |
| GGCAUCGGAGGAUAUACUUAUGGUGAUACCAGAAGCUUUCUACUUGAGGAUCACCCAAGUAGAAGGCCGAUGCC [jl-ex2.4.86 ViennaUCT mod] (Eterna round: R97, puzzle: Exclusion 2) | – | – | – | 17.5 | 26.2 | – |
| GGCGCCUCAGGAUAUCAGUCUGGAUCAGAAUAGAUCCUGACUGAGAAGGGACAUGAGGAUCACCCAUGUUCGCC [Eli 4x 4.29] (Eterna round: R97, puzzle: Exclusion 4) | – | – | – | 20.8 | 18.9 | – |
| GGCGGACAUGAGGAUCACCCAUGUUAGGAUAUGGUGCGAUCGUCGAUAGACGAUAGCACCAGAAGGGACACGCC [Mat - Exclusion 1 - Eli Mod - D2] (Eterna round: R97, puzzle: Exclusion 1) | – | – | – | 16.6 | 16.9 | – |
| GGGAAGGGAGGAUAUGAGGGAGAGAACAUGAGGAUCACCCAUGUGAGACCUCAGGAUCGAUCAGAAGGCCCGACCC [AK-MS2ROC-r4-exclusion5-13.1] (Eterna round: R97, puzzle: Exclusion 5) | – | – | – | 824 | 92.2 | – |
| GGGAGCAGACGGAGAUCCAACAUGAGGAUCACCCAUGUCUCCCAAGCUUUUUGCUUGUCUUAUCCUCCUCUGUUUCC [Design #9] (Eterna round: R97, puzzle: Sensor, turn-off variant 1) | – | – | – | 17.2 | 17.6 | – |
| GGGAGGGAUACAGGAUAUAUGACAUGAGGAUACAUGAGACAUACAAACAUGAGGAUCACCCAUGUAUAGAAGGGUAAGGGAGGG [Another guess] (Eterna round: R96, puzzle: Exclusion NG 2) | – | – | – | – | – | 126 |
| GGGAUGUCAGGAUAUCCGAAAGUCUGCCAAUACGGCAGACAGGAGAAGGGACAUGAGGAUCACCCAUGUAAAGA [Aedxear] (puzzle: Exclusion 4) | 120 | 59.4 | 49.4 | – | – | – |
| GGGAUGUGAGGAUAUCGAGGUGGAAAGCACCUAACAGAAAACGAGAAGGCACAUGAGGAUCACCCAUGUAAUAC [Ditete] (puzzle: Exclusion 4) | 54.6 | 19.5 | 19.8 | – | – | – |
| GGGCAAUUAGGAUAUACAUGAGGAUCACCCAUGUGGAAGCCCGGACAGGUAAUCCACUGUAGAAGGGAUUGCGG [Userqube] (puzzle: Exclusion 3) | – | 13.5 | – | – | – | – |
| GGGCCCGGAGGAUAUACAAUCCCGGGCCGAAAGGUUUGGGUACAUGAGGAUCACCCAUGUAGAAGGCCGGGCCC [-40.9, -38.2 kcal A 24%, 5b bis,0] (Eterna round: R97, puzzle: Exclusion 2) | – | – | – | 29.1 | 17.9 | – |
| GGGCCCGGAGGAUAUACAAUGGGUUUGGGAAACCGGGCCCUACAUGAGGAUCACCCAUGUAGAAGGCCGGGCCC [-41, -38.9 kcal A 24%, 5b,0] (Eterna round: R97, puzzle: Exclusion 2) | – | – | – | 39.9 | 34.2 | – |
| GGGCCCGGUGUGAGGAUAUGCCCGGGUAAACCCGGGUAGAAGGCACAUGAGGAUCACCCAUGUAAGCCGGGCCC [-43, -40.9 kcal, A 23%, 5cbis-0] (Eterna round: R97, puzzle: Brourd's mod of Exclusion 4) | – | – | – | 12.8 | 17.7 | – |
| GGGCCUGGUGUAGGAUAUCGUGGGCGGUGUCGGCGAGAAGGACAUGAGGAUCACCCAUGUCCGGGCUCGGGUUCCCGGGCUUGG [second try -37.9 kcal and 14% A] (Eterna round: R96, puzzle: Exclusion NG 1) | – | – | – | 28.5 | 15.4 | 13 |
| GGGCGGCGGACCGUGGCUUUUUGCUCGUCUUGUGCUUCGACAUGAGGAUCACCCAUGUGGUGGUGGUCCGUUGUGGG [Grok-var2-14 mod JAL] (puzzle: Sensor v3, turn-off variant 2) | 18.2 | 12.6 | 14.7 | – | – | – |
| GGGCGUGAAGGAUAUACAUGAGGAUCACCCAUGUGGGAGGAGAAUGGUGAGGAGGCUGGUAGAAGGUCAGGAGG [JR_Exclusion3_Sub009] (puzzle: Exclusion 3) | – | 37.5 | – | – | – | – |
| GGGUACAAGCUAAGAUCCUACAUGAGGAUCACCCAUGUGGUCCGGUGACGUGAGUCACCGGACUUAGCUCGUCUUGU [salish99_S_TOV1_R5_003] (Eterna round: R97, puzzle: Sensor, turn-off variant 1) | – | – | – | 59.3 | 61.3 | – |
| GGGUGACAUGAGGAUCACCCAUGUCAGGAUAUGAUUCUGCUUGCGAAAGCGAGUAGAAUCAGAAGGGACAUCCC (Eterna round: R97, puzzle: Exclusion 1) | – | – | – | 293 | 65.2 | – |
| GGGUGCAGGCUGAGGUCCUACAUGAGGAUCACCCAUGUGGUCCGGUGACGUGGGUCGCCGGACUUGGCUCGUCUUGU [salish99_S_TOV1_R5_012] (Eterna round: R97, puzzle: Sensor, turn-off variant 1) | – | – | – | 39 | 48.6 | – |
| GGGUGUGCUAAGGAUAUCGGACCAUCGGGUAACUGAGAAGGUAGCACAUGAGGAUCACCCAUGUGUAACUUGAU [EX6 B.12] (Eterna round: R97, puzzle: Exclusion 6) | – | – | – | 159 | 16 | – |
| GGUACUAACACGAAAGUGUUAGUACUAUAAGCUUGUGUUACAUGAGGAUCACCCAUGUCCUCAUAAGCUCGUCUUGU [JL-sv3-2.19 mat747 mod] (puzzle: Sensor v3, turn-off variant 2) | 45.4 | 44.2 | 44.9 | – | – | – |
| GGUACUAACACGAUAGUGUUAGUACUAUAAGCUUGUGUUACAUGAGGAUCACCCAUGUCCUCAUAAGCUCGUCUUAU [Mat - Sensor v3 - Turn-off var 2 - D77] (puzzle: Sensor v3, turn-off variant 2) | 95.9 | 50.2 | 98.6 | – | – | – |
| GGUACUAACACGAUAGUGUUAGUACUAUAAGCUUGUGUUACAUGAGGAUCACCCAUGUCCUCAUAGGCUCGUCUUAG [Mat - Sensor v3 - Turn-off var 2 - D85] (puzzle: Sensor v3, turn-off variant 2) | 87.1 | 23.1 | 106 | – | – | – |
| GGUACUCAAAGAGUACCAAUACGAACAUGAGGAUCACCCAUGUAGGAUAUGCUACUCAAAGAGUAGCAGAAGGACAUGUGCCUU [Far Half Aptamer v5] (Eterna round: R96, puzzle: Exclusion NG 3) | – | – | – | 254 | 29.5 | 25.3 |
| GGUACUCAAAGAGUACCAAUACGAACAUGAGGAUCACCCAUGUAGGAUAUGCUACUCAAAGAGUAGCAGAAGGAUAUGAUGAAU [Far Half Aptamer v16] (Eterna round: R96, puzzle: Exclusion NG 3) | – | – | – | 41.1 | 40.2 | 30.8 |

— the supplement of paper PMC9170038
